# Experiments:
# [1] = molecular target: recombinant soluble homotrimeric HA of A/duck/Yangzhou/02/2005 - H8N4 (Influenza A virus A/duck/Yangzhou/02/2005 (H8N4)); assay: micro-array; captured IgG, V5-tagged trimeric HA
# [2] = molecular target: recombinant soluble homotrimeric HA of A/Hong Kong/156/97 - H5N1 (Influenza A virus A/Hong Kong/156/97 (H5N1)); assay: micro-array; captured IgG, V5-tagged trimeric HA
# [3] = molecular target: recombinant soluble homotrimeric HA of A/Netherlands/219/03 - H7N7 (Influenza A virus A/Netherlands/219/03 (H7N7)); assay: micro-array; captured IgG, V5-tagged trimeric HA
# [4] = molecular target: recombinant soluble homotrimeric HA of A/Egypt/3300-NAMRU3/08 - H5N1 (Influenza A virus A/Egypt/3300-NAMRU3/2008 (H5N1)); assay: micro-array; captured IgG, V5-tagged trimeric HA
# [5] = molecular target: recombinant soluble homotrimeric HA of A/chicken/Vietnam/NCVD-016/08 - H5N1 (Influenza A virus A/chicken/Vietnam/NCVD-016/2008 (H5N1)); assay: micro-array; captured IgG, V5-tagged trimeric HA
# [6] = molecular target: recombinant soluble homotrimeric HA of A/northern shoveler/California/HKWF115/2007 - H6N1 (Influenza A virus A/northern shoveler/California/HKWF115/2007 (H6N1)); assay: micro-array; captured IgG, V5-tagged trimeric HA
# [7] = molecular target: hemagglutinin (HA) of influenza A/Solomon Islands/3/06 H1N1 (Influenza A virus A/Solomon Islands/3/2006 (H1N1)); assay: ELISA, inactivated whole virions coated; transfection supernatant set 3
# [8] = molecular target: hemagglutinin (HA) of influenza A/Japan/305/57 H2N2 (Influenza A virus A/Japan/305/1957 (H2N2)) (UniProt P03451); assay: as above
# [9] = molecular target: hemagglutinin (HA) of influenza A/Wisconsin/67/05 H3N2 (Influenza A virus A/Wisconsin/67/2005 (H3N2)); assay: as above
# [10] = molecular target: recombinant homotrimeric HA, A/Egypt/3300-NAMRU3/08 H5N1 (Influenza A virus A/Egypt/3300-NAMRU3/08 (H5N1)); assay: trimeric HA microarray, transfection set 3
# [11] = molecular target: recombinant homotrimeric HA, A/Wisconsin/67/05 H3N2 (Influenza A virus A/Wisconsin/67/05 (H3N2)); assay: trimeric HA microarray, transfection set 3
# [12] = molecular target: recombinant homotrimeric HA, A/northern shoveler/California/HKWF115/07 (Influenza A virus A/northern shoveler/California/HKWF115/2007 (H6N1)); assay: trimeric HA microarray, transfection set 3
# [13] = molecular target: recombinant homotrimeric HA, A/Indonesia/5/05 H5N1 (Influenza A virus A/Indonesia/5/05 (H5N1)); assay: trimeric HA microarray, transfection set 3
# [14] = molecular target: recombinant homotrimeric HA, A/Vietnam/1203/04 H5N1 (Influenza A virus A/Vietnam/1203/04 (H5N1)); assay: trimeric HA microarray, transfection set 3
# [15] = molecular target: recombinant homotrimeric HA, A/Solomon Islands/3/06 H1N1 (Influenza A virus A/Solomon Islands/3/06 (H1N1)); assay: trimeric HA microarray, transfection set 3
# [16] = molecular target: recombinant homotrimeric HA, A/Anhui/1/05 H5N1 (Influenza A virus A/Anhui/1/05 (H5N1)); assay: trimeric HA microarray, transfection set 3
# [17] = molecular target: recombinant homotrimeric HA, A/common magpie/Hong Kong/5052/07 H5N1 (Influenza A virus A/common magpie/Hong Kong/5052/07 (H5N1)); assay: trimeric HA microarray, transfection set 3
# [18] = molecular target: recombinant homotrimeric HA, A/South Carolina/1/18 H1N1 (Influenza A virus A/South Carolina/1/18 (H1N1)); assay: trimeric HA microarray, transfection set 3
# [19] = molecular target: recombinant homotrimeric HA, A/California/4/09 H1N1 (Influenza A virus A/California/4/09 (H1N1)); assay: trimeric HA microarray, transfection set 3
# [20] = molecular target: recombinant homotrimeric HA, A/duck/Yangzhou/02/05 H8N4 (Influenza A virus A/duck/Yangzhou/02/2005 (H8N4)); assay: trimeric HA microarray, transfection set 3
# [21] = molecular target: recombinant homotrimeric HA, A/Japan/305/57 H2N2 (Influenza A virus A/Japan/305/57 (H2N2)); assay: trimeric HA microarray, transfection set 3
# [22] = molecular target: recombinant homotrimeric HA, A/chicken/Vietnam/NCVD-016/08 H5N1 (Influenza A virus A/chicken/Vietnam/NCVD-016/08 (H5N1)); assay: trimeric HA microarray, transfection set 3
# [23] = molecular target: recombinant homotrimeric HA, A/swine/Ontario/01911-2/99 H4N6 (Influenza A virus A/swine/Ontario/01911-2/99 (H4N6)); assay: trimeric HA microarray, transfection set 3
# [24] = molecular target: recombinant homotrimeric HA, A/Netherlands/219/03 H7N7 (Influenza A virus A/Netherlands/219/03 (H7N7)); assay: trimeric HA microarray, transfection set 3
# [25] = molecular target: recombinant homotrimeric HA, A/Hong Kong/1073/99 H9N2 (Influenza A virus A/Hong Kong/1073/99 (H9N2)); assay: trimeric HA microarray, transfection set 3
# [26] = molecular target: recombinant homotrimeric HA, A/Hong Kong/2108/03 H9N2 (Influenza A virus A/Hong Kong/2108/03 (H9N2)); assay: trimeric HA microarray, transfection set 3
# [27] = molecular target: hemagglutinin (HA) of influenza A/Solomon Islands/3/06 H1N1 (Influenza A virus A/Solomon Islands/3/2006 (H1N1)); assay: ELISA, inactivated whole virions coated; transfection supernatant set 4
# [28] = molecular target: hemagglutinin (HA) of influenza A/Japan/305/57 H2N2 (Influenza A virus A/Japan/305/1957 (H2N2)) (UniProt P03451); assay: as above
# [29] = molecular target: hemagglutinin (HA) of influenza A/Wisconsin/67/05 H3N2 (Influenza A virus A/Wisconsin/67/2005 (H3N2)); assay: as above
# [30] = molecular target: hemagglutinin (HA) of influenza A/Solomon Islands/3/06 H1N1 (Influenza A virus A/Solomon Islands/3/2006 (H1N1)); assay: ELISA, inactivated whole virions coated; transfection supernatant set 2
# [31] = molecular target: hemagglutinin (HA) of influenza A/Wisconsin/67/05 H3N2 (Influenza A virus A/Wisconsin/67/2005 (H3N2)); assay: as above
substance,measurement,setting,value
TCN-202 (2N9) (antibody),Trimeric HA Binding: RLU,[1],13800 RLU
same,Trimeric HA Binding: RLU,[2],945 RLU
same,Trimeric HA Binding: RLU,[3],18000 RLU
same,Trimeric HA Binding: RLU,[4],13900 RLU
same,Trimeric HA Binding: RLU,[5],2570 RLU
same,Trimeric HA Binding: RLU,[6],3040 RLU
same,OD450,[7],0.1 OD450
same,OD450,[8],0.08 OD450
same,OD450,[9],0.08 OD450
same,Trimeric HA Binding RLU,[10],63 RLU
same,Trimeric HA Binding RLU,[11],51 RLU
same,Trimeric HA Binding RLU,[12],73 RLU
same,Trimeric HA Binding RLU,[13],43 RLU
same,Trimeric HA Binding RLU,[14],967 RLU
same,Trimeric HA Binding RLU,[15],57 RLU
same,Trimeric HA Binding RLU,[16],33 RLU
same,Trimeric HA Binding RLU,[17],16 RLU
same,Trimeric HA Binding RLU,[18],731 RLU
same,Trimeric HA Binding RLU,[19],205 RLU
same,Trimeric HA Binding RLU,[20],66 RLU
same,Trimeric HA Binding RLU,[21],42 RLU
same,Trimeric HA Binding RLU,[22],14 RLU
same,Trimeric HA Binding RLU,[23],54 RLU
same,Trimeric HA Binding RLU,[24],247 RLU
same,Trimeric HA Binding RLU,[25],57 RLU
same,Trimeric HA Binding RLU,[26],30 RLU
same,OD450,[27],0.1 OD450
same,OD450,[28],0.08 OD450
same,OD450,[29],0.07 OD450
same,OD450,[30],0.08 OD450
same,OD450,[31],0.07 OD450
